The text below walks through data of patent US20140328849A1 (Genentech, published 2014).

For assay [1], the target named is T1, rhesus monkey CRTh2 (rhesus monkey, UniProt Q9Y5Y4 1-395 (human entry)).
T1 construct: also called rhesus CRTh2
T1 chain: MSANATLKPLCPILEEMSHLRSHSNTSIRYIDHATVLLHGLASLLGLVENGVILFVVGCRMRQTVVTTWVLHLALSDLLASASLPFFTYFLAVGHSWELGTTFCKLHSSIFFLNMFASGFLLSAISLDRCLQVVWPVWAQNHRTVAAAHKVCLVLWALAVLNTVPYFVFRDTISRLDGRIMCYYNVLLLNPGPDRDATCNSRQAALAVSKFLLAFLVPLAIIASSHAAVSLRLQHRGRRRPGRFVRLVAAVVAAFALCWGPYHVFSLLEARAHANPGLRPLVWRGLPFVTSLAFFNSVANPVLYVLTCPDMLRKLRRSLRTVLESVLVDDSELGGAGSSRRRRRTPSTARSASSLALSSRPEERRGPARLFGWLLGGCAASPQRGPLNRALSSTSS
Nature of the assay: flow cytometry on 293 cells expressing rhesus CRTh2. Background: A flow cytometer gives signals particle by particle.

A further assay has as its target T2, cynomolgus monkey CRTh2 (cynomolgus monkey, UniProt Q9Y5Y4 1-395 (human entry)).
T2 construct: also called cyno CRTh2; cynomologous CRTh2
T2 chain: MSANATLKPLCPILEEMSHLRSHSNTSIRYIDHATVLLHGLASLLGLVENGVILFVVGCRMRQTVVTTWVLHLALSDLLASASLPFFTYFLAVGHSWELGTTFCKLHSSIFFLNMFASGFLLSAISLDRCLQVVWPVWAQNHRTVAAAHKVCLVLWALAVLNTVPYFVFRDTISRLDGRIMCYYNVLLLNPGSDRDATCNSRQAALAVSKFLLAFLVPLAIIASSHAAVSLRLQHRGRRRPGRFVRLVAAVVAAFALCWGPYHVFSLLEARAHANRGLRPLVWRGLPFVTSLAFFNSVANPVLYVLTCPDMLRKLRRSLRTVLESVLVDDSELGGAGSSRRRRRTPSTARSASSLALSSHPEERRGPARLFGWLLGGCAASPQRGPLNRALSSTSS
Description: flow cytometry on 300.19 cells expressing amino-terminal Flag-tagged cynomolgus CRTh2 [Cont.].

Assay [2] addresses T1, rhesus monkey CRTh2. Nature of the assay: flow cytometry on 300.19 cells expressing amino-terminal Flag-tagged rhesus CRTh2.

B1: mouse anti-human CRTh2 monoclonal antibody 19A2 (antibody, mouse IgG2a, V domains shown)
VH: EVKLVESGGGLVQPGGSLKLSCAASGFTFSSYSMSWVRQTPEKRLEWVAYISNGGSTTYYPGTVEGRFTISRDNAKNTLFLQMSSLRSKDTAMYYCARHRTNWDFDYWGQGTTLTVSS
VL: DIQMTQSPASLSVSVGETVTITCRASENIYSNLAWYQQKQGKSPQLVVYAATQLADGVPSRFSGSGSGTQYSLKINSLQSEDFGSYYCQHFWITPWTFGGGTKLEIK
notes: also called mu19A2; Mu19A2
Take B1: in the assay with rhesus monkey CRTh2 [1], the binding result was “no binding (tested: 20 ug/ml)”.

B2: mouse anti-human CRTh2 monoclonal antibody 8B1 (antibody, V domains shown)
VH: QVQLQQSGTGLVRPGTSVRVSCKASGYAFITYLIEWIKQRPGQGLEWIGVIHPGSGNSHYNEKFKGKATLTADTSSSTAYMQLSSLTSGDSAVYFCARSGSSSFDYYAMDFWGQGTSVTVSS
VL: DIQMTQSPSSLSASLGERVSLTCRASQEISGYFSWLQQKPDGTIKRLIYAASTLDSGVPKRFSGSRSGSDYSLTISSLESEDFADYYCLQYANYPYTFGGGTKLEIK
notes: also called mu8B1; Mab 8B1
B2: the binding result with cynomolgus monkey CRTh2 was “no binding (tested: 1 ug/ml)”; in the assay with rhesus monkey CRTh2 [2], “no binding (tested: 5 ug/ml)”.
